# Source: the nanobody polyreactivity screen of Harvey et al. (2022)
# Experiment: yeast display, Sf9 membrane polyspecificity reagent, FACS + sequencing; frameworks hold sequencing errors
# How it was run: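 Nanobodies from a synthetic yeast display library (Saccharomyces cerevisiae BJ5465), induced 36–48 hours with galactose, were stained 1 hour at 4 °C with 10% biotinylated, detergent-solubilized Sf9 membrane reagent, enriched on streptavidin microbeads, then FACS-sorted. Anti-HA (expression) and streptavidin (reagent binding) fluorescence set low and high (top ~1%) gates. Polyreactivity labels come from the gate of origin. Genes were colony-PCR amplified, MiSeq 2 × 250 sequenced and filtered by CDR length.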
row,Sequence,polyreactivity (PSR sort gate)
1,QVQLVESGGGLVQEGGSLRLSCAASGFIFVTNAMGWYRQAPGKERELVAAITIGDSTYYADSVKGRFTISRDNAKNTVYLQMNSLKPEDTAVYYCAAEVGFGPGFSTIAYTFDYWGQGTQVTVSS,low polyreactivity
2,QVQLVESGGGLVQEGGSLRLSCAASGFTFPDYAMGWNRQAPGKERDLVAAITSSGGSTYYADSVKGRFTISRDNAKNTVYLQMNSLKPEDTAVYYCNGYISDDRYWSPAIEEDYWGQGTQVTVSS,high polyreactivity
3,QVQLVESGGGLVQEGGSLRLSCAASGFTFPYYAMGWYRQAPGKERELVAAISNGGSNTYYADSVKGRFTISRDNAKNTVYVQMNSLKPEDTAVYYCAARVGGSYDYWGQGTQVTVSS,high polyreactivity
4,QVQLVESGGGLVQEGGSLRLSCAASGFTFPYYAMGWYRQAPGKERELVAAITSSGTITYYADSVKGRFTISRDNAKNTVYLQMNSLKPEDTAVYYCAARFSSTRYLQWYYYWGQGTQVTVSS,high polyreactivity
5,QVQLVESGGGLVQEGGSLRLSCAASGLIFNRYAMGWYRQAPGKERELVAAITSRGGRTYYADSVKGRFTISRDNAKNTVYLQMNSLKPEDTAVYYCNRTPTGSYLYGMDYWGQGTQVTVSS,high polyreactivity
6,QVQLVESGGGLVQEGGSLRLSCAASGRIFDENAMGWYRQAPGKERELVAAISSGDSTKYADSVKGRFTISRDNAKNTVYLQMNSLKPEDTAVYYCAAARNHGLVGSESVGRNDYWGQGTQVTVSS,low polyreactivity
7,QVQLVESGGGLVQEGGSLRLSCAASGRIFENNAMGWYRQAPGKERELVAAITSGGSTYYADSVKGRFTISRDNAKNTVYLQMNSLKPEDTAVYYCNVTFRVDPWTRTGYDYWGQGTQVTVST,high polyreactivity
8,QVQLVESGGGLVQEGGSLRLSCAASGRIFNGYAMGCYRQAPGKERELVAAINSSGGSTYYADSVKGRFTISRDNAKNTVYLQMNSLKPEDTAVYYCARVSYHYRTYDYWGQGTQVTVSS,high polyreactivity
9,QVQLVESGGGLVQEGGSLRLSCAASGRIFNTNAMGWSRQAPGKERELVAGITDSGDSTYDADSVKGRFTISRDNAKNTVYLQMYSLKPEDTGVYYCATDPASPYIYDYWGQGTQVTVSS,low polyreactivity
10,QVQLVESGGGLVQEGGSLRLSCAASGRIFPYYAMGWYRQAPGKERELVATITSGGSTYYADSVKGRFTISRDNAKNTVYLQMNSLKPEDTAVYYCAARYPSIYYYRYDYWGQGTQVTVSS,high polyreactivity
11,QVQLVESGGGLVQEGGSLRLSCAASGRTFADYTMGWYRQAPGKERELVAAISFSGGSTYYEDSVKGRFTISRDNAKNTVYLQMNSLKPEDTAFYYCAAGHKRRAPRYYYWGQGTQVTVSS,high polyreactivity
12,QVQLVESGGGLVQEGGSLRLSCAASGRTFKKYAMGWYRQAPGKERELVAAITGSGGSTYYADSVKGRFTISRDNAKNTVYLQMNSLKPEDSAVYYCAAYAYGVWHSQDGGNYWGQGTQVTVSS,low polyreactivity
13,QVQLVESGGGLVQEGGSLRLSCAASGRTFSRYVMGWYRQAPGKERELVAAIRGSGGGTYYADSVKGRFTISRDNAKNTVYLQMNSLKPEDTAVYYCNVVRSTVLYDYWGQGTQVTVSS,high polyreactivity
14,QVQLVESGGGLVQEGGSLRLSCAASGSIFGGYVMGWYRQAPGKERELVAAITSGGSTYYADSVKGRFTISRDNAKNTVYLQMNSLKPEDTAVYYCAKDYGDWGQGTQVTVSS,low polyreactivity
15,QVQLVESGGGLVQEGGSLRLSCAASGSIFQYYALGWYRPAPGKERELVAAISSGGRTNYADSVKGRFTISRDNAKNSVYLQMNSLKPEDTAVYYCAAARYYYQVYRWEYDYWGQGTQVTVSS,high polyreactivity
16,QVQLVESGGGLVQEGGSLRLSCAASGSIFRFYVMGWYRQAPGKERELVAAISIGGSTNYADSVKGRFTISRDNAKNTVYLQMNSRKPEDTAVYYCAADDWYGAGLPHGTEFDYWGQGTQVTVSS,low polyreactivity
17,QVQLVESGGGLVQEGGSLRLSCAASGSIFRVNTMGWYRQAPGKERELVATISSGARTNYADSVKGRFTISRDNAKNTVYLQMNSLKPEDTAVYYCAADRSWGYPRWFTSRYDYWGQGTQVTVSS,high polyreactivity
18,QVQLVESGGGLVQEGGSLRLSCAASGSNLKGYAMGWYRQAPGKERELVARITRGGSTNYADSVKGRFTISRDNAKNTVYLQRNSLKPEDTAVYYCNKSGRWSARSASREVGDDYWGQGTQVTVSS,low polyreactivity
19,QVQLVESGGGLVQEGGSLRLSCAASGSTFAYNAKGWYRQAPGKERELVARISSSGDITYDADSVKGRFTISRDNAKNTVYLQMNSLKPEDTAVYYCAKRYLTRYKGYYYWGQGTQVTVSS,high polyreactivity
20,QVQLVESGGGLVQEGGSLRLSCAASGSTFDIYAMGWYRQAPGKERELVAAIRGRGGSTYYADSVKGRFTISRDNGKNTVYLQMNSLKPEDTAVYYCAADSYATRYYYWGQGTQVTVSS,high polyreactivity
21,QVQLVESGGGLVQEGGSLRLSCAASGSTFEYNAMGWYRQAPGKERELVADISWRGGGTYYADSVKGRFTISRDNAKNTVYLQMNSLKPEDTAVYYCNTVSRNGFYRTRHDYWGQGTQVTVSS,low polyreactivity
22,QVQLVESGGGLVQEGGSLRLSCAASGSTFHDNAMGWYRQAPGKERELVASITGSSGSTYYADSVKGRFTISRDNAKNTVYLQMNSLKPEDTAVYYCADEGSRWYYFFYGGGGYWGQGTQVTVSS,low polyreactivity

row,Sequence,polyreactivity (PSR sort gate)
1,QVQLVESGGGLVQEGGSLRLSCAASGSTFHGYAMGWYRQAPGKERELVASISWSGGRTYYADSVKGRFTISRDNAKNTVYLQMNSMKPEDTAVYYCAAETGGLGGDYLGQGTQVTVSS,low polyreactivity
2,QVQLVESGGGLVQEGGSLRLSCAASGSTFWANAMGWYRQAPGKERELVAGITWNAGSTYYADSVKGRFTISRVDANNSVYLHMNSLKPEDTAVYYCAAFYHFQGWGPGYISWGQGTQVSVSS,low polyreactivity
3,QVQLVESGGGLVQEGGSLRLSCAASGTFYRYAMGWYRQAPGKERELVAAISRSGGSTYYADSVKGRFTISRDNAKNTVYLQMNSLKPEDTAVYYCAAYSRSFYLASLYDYWGQGTQVTVSS,high polyreactivity
4,QVQLVESGGGLVQEGGSLRLSCAASGYIFYYYAMGRYIQAPGKERELVAAISTSDTRTFYADSVKGRFTISRDNAKNTVYLQMNSRKPEDTAVYFCAASLYKGGPNYGYEYWGQGTQVTVSS,low polyreactivity
5,QVQLVESGGGLVQEGGSLRLSCAAYGRIFAPYSMGWYRQAPGKERELVAAITSGGSTNYADSVKGRFTISRDNAKNTVYLQMNSLKPEDTSVYYCASEASYNYVKYVVTYVYWGQGTQVTVSS,high polyreactivity
6,QVQLVESGGGLVQEGGSLRLSCASSGRIFDYYAMGWYRQAPGKESELVAAISSSVGNTYYADSVKGRFTISRDNAKNTVYFQMNRLKQEDTAVYYFADYSYVRSSYEVEYDYWGQGTQVTVSS,low polyreactivity
7,QVQLVESGGGLVQEGGSLRLSWAASGITFGGYAMGWYRQAPGKERELVAAISRGGGSTNYADSVKGRFTISLDNANNTVYLQMNSLKPEDTAVYYCNARRQNSRYDYWGQGTQVTVST,low polyreactivity
8,QVQLVESGGGLVQEGGSLSLSCAASGYIFYIYAMGWYRQAPGKERELVATISWSGGDTYYADSVKGRFTISRDNANNTVYLQMNSLNPEDTAVYYCATEVGQSWAGDGDYEYWGQGTQVTVSS,low polyreactivity
9,QVQLVESGGGLVQGGGSLRLSCAASGFTFGRYTMGWYRQAPGKERELVAPISWSGGSTFYADSVKGRFTISRDNAQNTVYFQMNSLKPEDTAVYNCDTRLKSVSGGYNYWGQGTQVTVSS,high polyreactivity
10,QVQLVESGGGLVQGGGSLRLSCAASGSIFPHNAMGWSRQAPGKERELVASITSRGGITYYADSVKGRFTISRDNAKNPLNLQMNSLKPEDTAVYYCAADLYIYPYDYWGQGTQVTVSS,low polyreactivity
11,QVQLVESGGGLVQGGGSLRLSCAASGSIFTRNAMGWYRQAPGKEREFVAAISSSGVSTYYADSVKGRFTISRDNAKNTVYLQMNSLKPEDTALYYCAARWGTKSGRYDYWGQGTQVTVSS,high polyreactivity
12,QVQLVESGGGLVQGGGSLRLSCASSGNTFYYYAMGWYRQAPGKERELVAAITRGGSTNYADSVKGRFTISRDNAKNTVYLEMISLKPEDTSVYYCAAEQRAPRFADYDYWGQGTQVTVSS,low polyreactivity
13,QVQLVESGGGLVQLGGSLRLSCAASGSIIFSYAIGWSRQAPWKERELVADNRSSDDDTYYADSVKGRFTISRDNAQNTDYLDMNSLKPEDTGGYYCNADFGYWWDGRRYDYWVQGTQVTVSS,low polyreactivity
14,QVQLVESGGGLVQPGCSLRLSCAASGSTFESYAMGWYRQAPGKERELVAAISWRVGSTYYADSVKGRFTISRDNAKNTVYLQMNSLKPEDNAVYYCASKGWYSHYGGYDYWGQGTQVTVSS,low polyreactivity
15,QVQLVESGGGLVQPGGSLRLRCAASGSTLAYYTMGWSRHAPGKEMELVAAISGSGGSTYYADSVKGRFTIARDNAKNTVYLQMNSLKPEDSAVYYSIAVLYYYTSSEYDYWGQGTQVTVSS,high polyreactivity
16,QVQLVESGGGLVQPGGSLRLSCAASGFIFGYYTMGWYRQAPGKERELVAVITSNGARTYYADSVKGRFTISRDNAKNTVYLQMNSLKPEDTAVYYCNAYRLSVSVGYDYWGQGTQVTVSS,high polyreactivity
17,QVQLVESGGGLVQPGGSLRLSCAASGFIFRNYAMGWYRQAPGQERELVAAITRSGDNTYYADSVKGRFTISRDNAKNTVYLQMNSLKPEDTAVYYCAARDVQYQQALGGDYWGQGTQVTVSS,low polyreactivity
18,QVQLVESGGGLVQPGGSLRLSCAASGFIFYYYAMGWYRQAPGKERELVAVLTESGSSTYYADSVKGRFTISRDNAKNTVYLQMNSLKPEDTAVYYCNADFWPYTGKYDYWGQGTQVTVSS,low polyreactivity
19,QVQLVESGGGLVQPGGSLRLSCAASGFTFSKYAMGWYRQAPGKERELVAAISRSAGSTYYADSVKGRFTISRDNAKNTVYLQMNSLKPEDTAVYYCARDNPRRPSGYNYWGQGTQVTVSS,high polyreactivity
20,QVQLVESGGGLVQPGGSLRLSCAASGIIFGSYAMGWYRQAPGKERELFAAITKSGGSTFYADSVKGRYTISRDNAKNTVYLQMNSLKPEDTAVYYCTAVKYRYLEYNYWGQGTQVTVSS,high polyreactivity
21,QVQLVESGGGLVQPGGSLRLSCAASGIIFRYYAMGWYRQAPGKERELVAAITWSGGSTYYADSVKGRFTISRDNAKNTVYLQMNRLKPEDTAVFDCAADWWSVRGYAVDYWGQGTQVTVSS,high polyreactivity
